This note sets out measurements from FireProtDB (doi:10.1021/bi00105a011).

B1: Lysozyme C, P61626 (parent)
chain: MKALIVLGLVLLSVTVQGKVFERCELARTLKRLGMDGYRGISLANWMCLAKWESGYNTRATNYNAGDRSTDYGIFQINSRYWCNDGKTPGAVNACHLSCSALLQDNIADAVACAKRVVRDPQGIRAWVAWRNRCQNRDVRQYVQGCGV

Variants of B1 are the subject of the series. Particulars: Homo sapiens; pH 3; 25 °C; GdnHCl; CD; glycine-HCl 40 mM; reversible: yes (100%); structure 1LZ1; whole UniProt chain shown.

For D109P, the “ddG of mutation (higher = less stable)” value is 0.8 kcal/mol, the denaturant m value worked out at 5.42 kcal/mol/M, the “denaturant midpoint (higher = more stable)” value (shortened to “denaturant midpoint”) stood at 2.78 M and the unfolding free energy turned out to be 8.9 kcal/mol.
Taken in the same sequence, the figures for V128P were -2.4 kcal/mol, 6.69 kcal/mol/M, 3.05 M and 12.1 kcal/mol.
For the variant P89G, the “ddG of mutation (higher = less stable)” value stood at 1.2 kcal/mol, the denaturant m value turned out to be 5.43 kcal/mol/M, the “denaturant midpoint” value was found to be 2.63 M and the unfolding free energy was determined as 8.5 kcal/mol.
The like results for P89G P121G were, in that order, 1.1 kcal/mol, 5.48 kcal/mol/M, 2.64 M and 8.6 kcal/mol.
For A65P, the “ddG of mutation (higher = less stable)” value was -1.1 kcal/mol, the denaturant m value was determined as 5.5 kcal/mol/M, the “denaturant midpoint” value was 3.3 M and the unfolding free energy turned out to be 10.8 kcal/mol.
The like results for P121G were, in that order, 0 kcal/mol, 5.55 kcal/mol/M, 2.95 M and 9.7 kcal/mol.
